Experimental findings from paper doi:10.1101/585943 (bioRxiv, 2019) are described below.

This data set concerns the molecule itself. Nature of the data set: cryo-EM structure.

B1: SgrAI, type II restriction endonuclease, his-tagged wild type (enzyme, Streptomyces griseus)
chain: PFTYSIEATRNLATTERCIQDIRNAPVRNRSTQFQLAQQNMLAYTFGEVIPGFASAGINGMNYRDVIGRPVENAVTEGTHFFRDDFRVDSNAKAKVAGDIFEIVSSAVMWNCAARWNSLMVGEGWRSQPRYSRPTLSPSPRRQVAVLNLPRSFDWVSLLVPESQEVIEEFRAGLRKDGLGLPTSTPDLAVVVLPEEFQNDEMWREEIAGLTRPNQILLSGAYQRLQGRVQPGEISLAVAFKRSLRSDRLYQPLYEANVMQLLLEGKLGAPKVEFEVHTLAPEGTNAFVTYEAASLYGLAEGRSAVHRAIRELYVPPTAADLARRFFAFLNERMELVNG
As to B1, the binding result was “binds”.
